Laboratory results published in paper PMC4003909 (Structure (London, England : 1993), 2013).

Assays:
[1] = target: T1, BCORL1 PUFD (1594-1711) with METR leader, co-expressed and purified with PCGF1 RAWUL (human, UniProt Q5H9F3-1 1594-1711); experiment: AUC
T1 sequence: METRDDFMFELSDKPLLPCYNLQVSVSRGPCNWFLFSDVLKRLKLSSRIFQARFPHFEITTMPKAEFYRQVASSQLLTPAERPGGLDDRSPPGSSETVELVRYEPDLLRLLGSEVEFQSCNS

[2] = target: BCOR PUFD (1634-1748) with METR leader, co-expressed and purified with PCGF1 RAWUL (human, UniProt Q6W2J9 1634-1748); experiment: AUC

Kd [1]: < 8.5 µM
Kd [2]: < 8.5 µM
B1: PCGF1 RAWUL (167-255), co-expressed and purified with a PUFD (domain or fragment, human, UniProt Q9BSM1 167-255, looked up)
chain: EQLNLCLERLSSGKDKNKSVLQNKYVRCSVRAEVRHLRRVLCHRLMLNPQHVQLLFDNEVLPDHMTMKQIWLSRWFGKPSPLLLQYSVK
